Data on one substance can be found in paper PMC4735842.

This test addresses Cereolysin O (CLO) of Bacillus cereus ATCC 11778 (BC1) (Bacillus cereus ATCC 11778 (endogenous in the culture)). Description: SDS-PAGE with Western blot; retentates of BC1 microaerobic culture supernatants (grown with or without 1 g/L BSA, 3 kDa cut-off filter); boiled 5 min in Laemmli buffer with 50 mM DTT; 4-20% Tris-Glycine gel; blot with rabbit anti-streptolysin O antibody.

Turning to “Cereolysin O (CLO) of Bacillus cereus ATCC 11778 (BC1) (natural protein)”, the stoichiometry N came to 2.
